This is an account of results in paper doi:10.1101/2025.07.22.666160, “Alphaherpesvirus pUL21 homologues use non-canonical motifs to compete with cellular adaptors for protein phosphatase 1 binding” (bioRxiv, 2025).

Primed or numbered codes have the meaning given here. Where no end group is shown, it is not given here. FITC′ = fluorescein isothiocyanate; Ahx = NCCCCCC(=O)O

What all share (details): both partners purified
The target in experiment [1] is T1, mouse PP1γ catalytic domain (residues 7–300)-H6 (mouse, UniProt P63087 7-300).
T1 construct: Protein phosphatase 1 gamma catalytic domain, mouse, residues 7-300; also called PP1 catalytic domain; source: E. coli T7 Express lysY/Iq, purified (Ni-NTA, SEC)
The experiment is described as follows: fluorescence polarisation; competition fluorescence anisotropy; pUL21 titrated into a pre-formed complex of 2 nM FITC-GADD34 peptide and 250 nM PP1γ; Tris pH 8.5 in place of HEPES pH 8.

Experiment [2] addresses T1, mouse PP1γ catalytic domain (residues …). Description: ITC; 25°C; 50 mM HEPES pH 8.0, 500 mM NaCl, 0.5 mM TCEP; 12 x 3 µL injections; one-site binding model; syringe and cell contents in Table S1. (In general: In ITC the heat of successive injections is recorded.)
Experiment [3] shares this target. Description: fluorescence polarisation; competition fluorescence anisotropy; competitor titrated into a pre-formed complex of 2 nM FITC-GADD34 peptide and 250 nM PP1γ (final); 27°C; 50 mM HEPES pH 8.0, 500 mM NaCl, 0.05% TWEEN-20. A general note: In fluorescence polarisation assays a small probe gives low polarisation when free and higher when bound to something large.

For experiment [4] the target is unchanged. The experiment is described as follows: fluorescence polarisation; fluorescence anisotropy; serial dilution of PP1γ catalytic domain with 2 nM FITC-GADD34 peptide; 27°C; 50 mM HEPES pH 8.0, 500 mM NaCl, 0.05% TWEEN-20; one-site model.
For experiment [5] the target is unchanged. The experiment is described as follows: fluorescence polarisation; fluorescence anisotropy; serial dilution of PP1γ catalytic domain with 2 nM FITC-GADD34 peptide; Tris pH 8.5 in place of HEPES pH 8.

T1 sequence (P63087 7-300): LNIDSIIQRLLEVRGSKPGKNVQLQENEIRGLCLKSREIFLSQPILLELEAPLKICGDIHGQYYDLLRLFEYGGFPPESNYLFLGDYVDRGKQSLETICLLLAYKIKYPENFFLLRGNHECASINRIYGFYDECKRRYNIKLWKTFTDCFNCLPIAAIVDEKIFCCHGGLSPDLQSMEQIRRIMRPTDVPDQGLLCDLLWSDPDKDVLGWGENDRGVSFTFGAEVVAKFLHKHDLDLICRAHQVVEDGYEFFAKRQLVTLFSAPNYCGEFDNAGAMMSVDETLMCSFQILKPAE

B1: pUL21-RVxF-H6 (A237V+V239F) (natural protein)
chain: MELSYATTMHYRDVVFYVTTDRNRAYFVCGGCVYSVGRPCASQPGEIAKFGLVVRGTGPDDRVVANYVRSELRQRGLQDVRPIGEDEVFLDSVCLLNPNVSSELDVINTNDVEVLDECLAEYCTSLRTSPGVLISGLRVRAQDRIIELFEHPTIVNVSSHFVYTPSPYVFALAQAHLPRLPSSLEALVSGLFDGIPAPRQPLDAHNPRTDVVITGRRAPRPIAGSGAGSGGAGAKRVTFSEFVQVKHIDRVGPAGVSPAPPPNNTDSSSLVPGAQDSAPPGPTLRELWWVFYAADRALEEPRADSGLTREEVRAVRGFREQAWKLFGSAGAPRAFIGAALGLSPLQKLAVYYYIIHRERRLSPFPALVRLVGRYTQRHGLYVPRPDDPVLADAINGLFRDALAAGTTAEQLLMFDLLPPKDVPVGSDVQADSTALLRFIESQRLAVPGGVISPEHVAYLGAFLSVLYAGRGRMSAATHTARLTGVTSLVLAVGDVDRLSAFDRGAAGAASRTRAAGYLDVLLTVRLARSQHGQSV
notes: HSV-1 pUL21 with A237V and V239F, made from pUL21-H6 (the full-length protein) by site-directed mutagenesis; methods, results and legend say V239F; also called RVxF pUL21; A237V+V239F (RVxF) mutant; source: E. coli T7 Express lysY/Iq, purified (Ni-NTA, SEC); not shown: His6, C-terminal, kept
For B1, in experiment [1], the IC50 – broadly, the midpoint of a concentration-inhibition curve – was 337 nM.

B2: pORF38-NLT-H6 (residues 1–263) (domain or fragment)
chain: MEFPYHSTVSYNGVTFYFNERATRAYFICGGCLISIPRKHGGEIAKFGHVVRGVGPGDRSVASYVRSELNRTGKTWAVSSNNNCVFLDRVALLAAGSGAVDRDLCGTFDVEVEDPTLADYLVSLPVTHLTLVAGVDVTRENKLKLFPTPTAINTTNGFMYVPNEASFSLVYMRMLELPESLQELVSGLFDGTPEIRDALNGSNDDEKTSIIVSRRAADVVTEDVKADDVPISGEPYSEKQPRRRKKSDHITLSNFVQIRTIPR
notes: VZV pORF38 residues 1-263: N-terminal domain plus linker region to the end of the TROPPO motif (NLT region); Sub-cloned into the vector pOPTnH; also called pOPF38-NLT; source: E. coli T7 Express lysY/Iq, purified (Ni-NTA, SEC); not shown: His6, C-terminal, kept
On to B2, for which, in experiment [2], the equilibrium dissociation constant (Kd) (commonly the free concentration of one partner at which half of the binding sites on the other are occupied at equilibrium, for simple one-to-one binding) turned out to be 497 nM and the stoichiometry N (as a rule, a count of units in the complex or per binding partner) is 1. Besides, the IC50 in experiment [3] is 417 nM.

B3: GADD34 RVxF+ϕϕ[xF] peptide (residues 552–568), FITC-labelled (peptide)
peptide: {FITC′-Ahx}-KARKVRFSEKVTVHFLA
notes: GADD34 (PP1 regulatory subunit 15A, PPP1R15A), residues 552-568 with the RVxF and ϕϕ[xF] motifs; also called GADD34 peptide; fluorescent GADD34 peptide; source: synthetic peptide (GenScript, >95% purity)
Turning to B3, the figures for the dissociation constant (Kd) in experiment [4] and in experiment [5] were 144 nM and 55 nM, respectively.
